No end group written: not given here.
Assays:
[1] = target: T1, THD1 Δ401-405 (UniProt P26039 1-405, Δ401-405); experiment: MST; unlabelled protein titrated to 50-200 nM ATTO 488-labelled β-CT peptide, no third protein; 20 mM Tris pH 7.5, 200 mM NaCl, 1 mM TCEP, 0.05% Tween-20; Kd of individual titrations (in S0002 mean and sd, n = 2); details: both partners purified
T1 construct: source: E. coli (DE3) Rosetta 2, purified (IMAC, SEC); not shown: His10-SUMO, N-terminal, cleaved

[2] = target: T2, THD1 I399A (UniProt P26039 1-405, I399A); experiment: as above; details: both partners purified
T2 construct: talin-1 (TLN1) head domain, residues 1-405, I399A; source: E. coli (DE3) Rosetta 2, purified (IMAC, SEC); not shown: His10-SUMO, N-terminal, cleaved
T2 sequence (P26039 1-405 I399A): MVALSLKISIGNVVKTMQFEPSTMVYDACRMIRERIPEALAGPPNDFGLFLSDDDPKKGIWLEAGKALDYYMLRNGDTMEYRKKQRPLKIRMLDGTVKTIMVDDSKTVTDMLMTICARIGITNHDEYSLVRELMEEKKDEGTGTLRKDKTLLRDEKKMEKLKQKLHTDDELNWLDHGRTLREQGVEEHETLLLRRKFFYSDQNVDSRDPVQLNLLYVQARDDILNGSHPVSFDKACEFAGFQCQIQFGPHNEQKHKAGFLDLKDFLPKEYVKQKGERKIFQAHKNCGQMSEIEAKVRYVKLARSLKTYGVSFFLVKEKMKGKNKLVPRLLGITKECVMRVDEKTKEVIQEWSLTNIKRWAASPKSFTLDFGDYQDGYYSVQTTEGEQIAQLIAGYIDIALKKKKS

T1 sequence (P26039 1-400, stated change not applied): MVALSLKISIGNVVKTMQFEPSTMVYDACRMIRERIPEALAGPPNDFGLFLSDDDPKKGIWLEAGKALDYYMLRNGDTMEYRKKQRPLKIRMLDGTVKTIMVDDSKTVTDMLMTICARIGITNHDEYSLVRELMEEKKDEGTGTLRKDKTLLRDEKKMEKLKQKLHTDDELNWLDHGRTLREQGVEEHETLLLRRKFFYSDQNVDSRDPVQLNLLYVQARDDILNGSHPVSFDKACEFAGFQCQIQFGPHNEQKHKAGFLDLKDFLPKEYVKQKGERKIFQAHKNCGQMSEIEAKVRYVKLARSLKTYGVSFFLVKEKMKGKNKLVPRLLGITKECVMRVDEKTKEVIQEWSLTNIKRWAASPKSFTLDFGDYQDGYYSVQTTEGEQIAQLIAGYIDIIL

Kd [1]: 250 µM
Kd [2]: 55.2 µM
B1: ATTO 488-labeled integrin β3 cytoplasmic tail (488–β3-CT) (peptide, UniProt O54890 741-787, looked up)
peptide: {ATTO 488}-KLLITIHDRKEFAKFEEERARAKWDTANNPLYKEATSTFTNITYRGT
notes: integrin β3 cytoplasmic tail (β3-CT); source: synthetic peptide (MPIB Core Facility)
